Measured values from US11767515B2, “Colonic organoids and methods of making and using same” (Children's Hospital Medical Center, priority 2016, dated 2023).

Key:
BMP signaling [1] = assay: BMP inhibition in mouse whole embryo culture; type: in vivo
Experimental: For mouse whole embryo cultures, e7.5 embryos were cultured in a 1:1 mixture of Ham's F12 medium and whole embryo culture rat serum (Harlan Labs) containing N-2 Supplement (Invitrogen). Vessels were placed on a roller culture apparatus (BTC Engineering, Cambridge, UK) and maintained for 2 days at 37° C. and gassed with 20% 02 and 5% CO2. BMP signaling was inhibited by treatment with 5 pM DMH-1, with DMSO serving as a vehicle control.
(§1) Tissue processing, immunofluorescence and microscopy. Tissues were fixed for 1-3 hours in 4% paraformaldehyde (PFA) on ice depending on the size of the tissue. Organoids and transplant engraftments were frozen in OCT. OCT sections were blocked using donkey serum (5% serum in 1×PBS plus 0.5% Triton-X) for 30 min and incubated with primary antibody overnight at 4° C. Slides were then washed 3× with 1×PBS plus 0.5% Triton-X and incubated in secondary antibody with DAPI in blocking buffer for 2 h at room temperature. See Table 2 for a list of antibodies and respective dilutions. Slides were then washed 2× with 1×PBS plus 0.5% Triton-X followed by a final wash in 1×PBS. Coverslips were then mounted using Fluoromount-G® (SouthernBiotech). Images were captured on a Nikon A1 confocal microscope and analyzed using Imaris Imaging Software (Bitplane). For whole-mount staining, tissues were processed similarly as above and then cleared in Murray's solution. Imaging was performed with a Nikon A1 confocal microscope.
(§2) Quantification of immunofluorescence images. Image quantitation of whole embryos was done by splitting images into separated channels and then measuring pixel area using ImageJ (NIH). Pixel area was determined for each channel, the ratio between channels was determined and the ratio for control treated embryos was represented as 100. Quantitation of in vitro and in vivo grown organoids was done on sections from which images were captured as explained above. The number of CDX2, GATA4 and SATB2 positive nuclei were quantified using the spot function in [marls following calibration with human biopsy samples.

BMP signaling [2] = assay: BMP inhibition in Xenopus tropicalis embryos; type: in vivo; settings: DMH-1 20 pM vs DMSO
Experimental: BMP inhibition in frog and mouse embryos. Xenopus tropicalis embryo culture and small molecule treatments were performed as previously described (Rankin et al., 2012; Rankin et al., 2015). DMH-1 (Sigma D8946) was dissolved in DMSO, and used at final concentration of 20 pM; equal concentrations of DMSO vehicle were used on sibling embryos. Inhibitor treatment experiments were repeated twice with similar effects on the markers analyzed. For Xenopus in-situ hybridization analyses, DIG-labeled antisense RNA probes were generated using linearized full-length cDNA plasmid templates (X. tropicalis satb2 was purchased from ATCC, clone 7720194; HinDIII, T7 for probe; X. laevis satb2 was a gift for Tyler Square and Daniel Medeiros, University of Colorado-Boulder; Xbal, Sp6 for probe). Complete details describing probe synthesis and the in-situ hybridization protocol are available on Xenbase (hftp://wiki.xenbase.orq/xenwiki/index.php/Protocols).

human gut tube spheroids [3] = assay: HOX/MSX2 gene expression in patterned gut tube spheroids after 3 days (RNA-seq, QPCR); type: cell-based
Experimental: (§3) Patterning midgut/hingut spheroids into HIOs and HCOs. Spheroids were collected from 24 well plate and plated in Matrigel (BD). To generate proximal HIOs, spheroids were overlayed with intestinal growth medium (Advanced DMEM/F-12, N2, B27, 15 mM HEPES, 2 mM L-glutamine, penicillin-streptomycin) supplemented with 100 ng/mL EGF (R&D) alone, or 100 ng/mL EGF with 100 ng/ml NOGGIN (R&D). To generate HCOs, spheroids were overlayed with 100 ng/mL EGF plus 100 ng/mL BMP (R&D). For SHH experiments, 1 pM SAG (Tocris), 5 pM SAG or 2.5 pM Cyclopamine (Tocris) were added to control media for initial 3 days after which RNA samples were collected. Media was changed at 3 days with only EGF being maintained in the media for all patterning conditions. Media was then changed twice weekly thereafter. HIOs and HCOs were replated in fresh Matrigel every 14 days.
(§4) RNA isolation and QPCR. RNA was extracted using Nucleospin® RNA extraction kit (Macharey-Nagel) and reverse transcribed into cDNA using Superscript VILO (Invitrogen) according to manufacturer's protocols. QPCR primers were designed using the qPrimerDepot webased tool (primerdepot.nci.nih.gov). QPCR was performed using Quantitect SYBR® Green PCR kit (Qiagen) and a QuantStudio™ 6 Flex Real-Time PCR System (Applied Biosystems).

[4] = tested on: human intestinal organoids; assay: Regional markers in organoids after prolonged in vitro culture (IF, QPCR); type: cell-based
Experimental: as §3, §1, §2, §4

transplanted organoids = assay: Transplantation of patterned organoids under the mouse kidney capsule; type: in vivo
Experimental: as §1

organoid mesenchyme = assay: Patterning markers in isolated organoid mesenchyme cultures (QPCR); type: cell-based, human; settings: mesenchymal cell cultures expanded for 2-3 weeks
Experimental: as §4

human gut tube spheroids [5] = assay: Patterning of human gut tube spheroids (pSMAD1/5/8 and SATB2 staining); type: cell-based; settings: spheroids treated for 12 hours; 100 ng/mL
Experimental: as §3, with “Media was then changed twice weekly thereafter. HIOs and HCOs were replated in fresh Matrigel every 14 days.” left out
Tissue processing, immunofluorescence and microscopy. […] Images were captured on a Nikon A1 confocal microscope and analyzed using Imaris Imaging Software (Bitplane). […]
as §2, with “The number of CDX2, GATA4 and SATB2 positive nuclei were quantified using the spot function in [marls following calibration with human biopsy samples.” left out

[6] = 28-day old organoids after initial 3 day treatment

Molecule: CC(C)Oc1ccc(-c2cnc3c(-c4ccnc5ccccc45)cnn3c2)cc1 [DMH-1]
- Satb2 expression in the first brachial arch (BMP signaling [1]; DMH-1 treated mouse embryos): lost
- Satb2 expression in the posterior gut tube (BMP signaling [1]; e7.5 mouse embryos, 48 hours of DMH-1 treatment): loss of Satb2 expression
- pSmad1/5/8 levels (BMP signaling [1]; e7.5 mouse embryos, 48 hours of DMH-1 treatment, 5 µM DMH-1 vs DMSO): significant reduction
- TGFI3 signaling as measured by pSmad2/3 levels (BMP signaling [1]; mouse embryos cultured in DMSO or DMH-1): no impact
- Satb2 expression in the hindgut and brachial arches (BMP signaling [2]): loss of Satb2 expression

Molecule: CNC1CCC(N(Cc2cccc(-c3ccncc3)c2)C(=O)c2sc3ccccc3c2Cl)CC1 (stereo not shown) [SAG]
- SAG-mediated activation of MSX2, HOXA13, HOXD13 relative to activation mediated by BMP2 (human gut tube spheroids [3]; 3 days): only a fraction
- activation of MSX2, HOXA13 and HOXD13 (QPCR) (human gut tube spheroids [3]; SAG added to control media for initial 3 days): concentration dependent activation

B1: NOGGIN: BMP inhibitor NOGGIN (R&D), 100 ng/ml, used to generate proximal HIOs (protein, UniProt Q13253 28-232, looked up)
Noggin: QHYLHIRPAPSDNLPLVDLIEHPDPIFDPKEKDLNETLLRSLLGGHYDPGFMATSPPEDRPGGGGGAAGGAEDLAELDQLLRQRPSGAMPSEIKGLEFSEGLAQGKKQRLSKKLRRKLQMWLWSQTFCPVLYAWNDLGSRFWPRYVKVGSCFSKRSCSVPEGMVCKPSKSVHLTVLRWRCQRRGGQRCGWIPIQYPIISECKCSC
- SATB2 expression after re-patterning with NOGGIN ([4]; 3-day BMP treated spheroids shifted to NOGGIN-containing media for 3 days): a subset of organoids lost SATB2 expression
- Levels of ONECUT1 (marker of proximal small intestine) [4, 6]: highest
- SATB2 in the epithelium [4, 6]: absent
- MUC5B staining (colon-specific goblet cell marker) ([4]; 28-day organoids): absent
- goblet cells by intracellular MUC2 staining ([4]; at 28 days): rare intracellular MUC2 staining
- efficiency of organoid engraftment (transplanted organoids; compared with HCOs): more efficient
- epithelial morphology of transplanted organoids (transplanted organoids; under the mouse kidney capsule for 6-10 weeks): formed well-defined crypts and tall villi
- HOXD3 expression / proximal identity of mesenchyme (organoid mesenchyme): stable proximal identity
- BMP signaling levels by nuclear pSMAD1/5/8 staining (human gut tube spheroids [5]): abolished this staining
